One block for each molecule: values may come before it.
Key:
[1] = molecular target: human CD28 on PHA-activated T cells of PBMC (human) (UniProt P10747); experiment: cell-based or functional assay
[2] = molecular target: T1, mouse PDL1 co-expressed with mouse CD80 on CD80-transfected 4T1 cells (4T1/CD80) (mouse, UniProt Q9EP73 19-290; Q00609 38-306); experiment: flow cytometry on IFN-gamma-treated cells, sPD1-Fc detected with anti-PD1-APC
T1 construct: whole, on cells; also called PDL1 on 4T1/CD80 cells; PDL1+CD80+ 4T1/CD80 cells
T1 sequence (Q9EP73 19-290, chain 1 of 2): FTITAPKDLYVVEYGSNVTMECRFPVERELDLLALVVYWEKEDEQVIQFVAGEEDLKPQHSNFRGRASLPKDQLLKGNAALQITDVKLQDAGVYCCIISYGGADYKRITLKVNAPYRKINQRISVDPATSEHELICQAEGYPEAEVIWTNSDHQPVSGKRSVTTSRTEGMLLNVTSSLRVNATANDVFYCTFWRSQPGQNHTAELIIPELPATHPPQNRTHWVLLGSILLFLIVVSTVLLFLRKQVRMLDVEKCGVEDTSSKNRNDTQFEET
T1 sequence (Q00609 38-306, chain 2 of 2): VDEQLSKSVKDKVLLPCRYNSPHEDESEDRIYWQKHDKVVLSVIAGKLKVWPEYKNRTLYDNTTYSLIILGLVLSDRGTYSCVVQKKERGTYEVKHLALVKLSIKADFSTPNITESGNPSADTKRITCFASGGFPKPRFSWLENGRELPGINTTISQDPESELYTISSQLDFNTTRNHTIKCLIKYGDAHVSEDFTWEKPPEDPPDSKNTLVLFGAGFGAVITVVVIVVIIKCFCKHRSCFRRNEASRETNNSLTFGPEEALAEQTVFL

Chain of human CD28 on PHA-activated T cells of PBMC (human) (P10747 19-220): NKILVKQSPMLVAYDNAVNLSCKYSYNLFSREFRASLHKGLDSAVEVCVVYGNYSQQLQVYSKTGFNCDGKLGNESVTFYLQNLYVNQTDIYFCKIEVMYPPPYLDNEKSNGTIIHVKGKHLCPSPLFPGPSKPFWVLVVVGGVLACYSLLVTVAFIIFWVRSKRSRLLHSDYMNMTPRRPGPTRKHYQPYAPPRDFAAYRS

increase of IFNγ production by PHA-activated PBMC, no tumor cells (ELISA) [1]: 14 to 28%
Molecule: soluble CD80-Fc: extracellular two domains of human CD80 fused to the Fc domain of IgG1 (Fc fusion)

binding result [2]: no binding
B1: recombinant mouse PD1-Fc fusion protein (Fc fusion, UniProt Q02242 25-167, looked up)
chain: LEVPNGPWRSLTFYPAWLTVSEGANATFTCSLSNWSEDLMLNWNRLSPSNQTEKQAAFCNGLSQPVQDARFQIIQLPNRHDFHMNILDTRRNDSGIYLCGAISLHPKAKIEESPGAELVVTERILETSTRYPSPSPKPEGRFQ
notes: Recombinant reagent; also called sPD1-Fc (mouse); soluble form of PD1; not shown: Fc part

Source: patent US20130149305A1 (UNIVERSITY OF MARYLAND BALTIMORE COUNTY, published 2013)
